Literature values as cited in patent US20040096894A1, “Crystal structures of P- selectin, P- and E-selectin complexes, and uses thereof” (priority 2000, published 2004).

Molecular target: T1, full-length neutrophil PSGL-1 (Homo sapiens, UniProt Q14242)
T1 construct: to full-length neutrophil PSGL-1; host or cells: neutrophils
T1 sequence (Q14242 42-412): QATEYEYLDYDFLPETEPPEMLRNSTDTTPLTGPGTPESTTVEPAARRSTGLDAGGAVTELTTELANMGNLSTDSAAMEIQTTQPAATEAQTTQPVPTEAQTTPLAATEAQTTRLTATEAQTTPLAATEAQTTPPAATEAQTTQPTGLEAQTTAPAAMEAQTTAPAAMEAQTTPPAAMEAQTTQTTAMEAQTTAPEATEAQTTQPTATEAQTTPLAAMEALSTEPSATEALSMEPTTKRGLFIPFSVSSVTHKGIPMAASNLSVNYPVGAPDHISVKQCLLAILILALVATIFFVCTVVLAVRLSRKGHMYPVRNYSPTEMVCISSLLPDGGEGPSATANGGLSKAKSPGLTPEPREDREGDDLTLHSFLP
Conditions: previously determined values (Mehta et al., 1998); read-out: KD for binding to full-length neutrophil PSGL-1

- Kd: 322 nM
B1: soluble P-selectin: Soluble P-selectin of the literature study (Mehta et al., 1998) (protein, UniProt P16109 42-771, looked up)
extracellular domain: WTYHYSTKAYSWNISRKYCQNRYTDLVAIQNKNEIDYLNKVLPYYSSYYWIGIRKNNKTWTWVGTKKALTNEAENWADNEPNNKRNNEDCVEIYIKSPSAPGKWNDEHCLKKKHALCYTASCQDMSCSKQGECLETIGNYTCSCYPGFYGPECEYVRECGELELPQHVLMNCSHPLGNFSFNSQCSFHCTDGYQVNGPSKLECLASGIWTNKPPQCLAAQCPPLKIPERGNMTCLHSAKAFQHQSSCSFSCEEGFALVGPEVVQCTASGVWTAPAPVCKAVQCQHLEAPSEGTMDCVHPLTAFAYGSSCKFECQPGYRVRGLDMLRCIDSGHWSAPLPTCEAISCEPLESPVHGSMDCSPSLRAFQYDTNCSFRCAEGFMLRGADIVRCDNLGQWTAPAPVCQALQCQDLPVPNEARVNCSHPFGAFRYQSVCSFTCNEGLLLVGASVLQCLATGNWNSVPPECQAIPCTPLLSPQNGTMTCVQPLGSSSYKSTCQFICDEGYSLSGPERLDCTRSGRWTDSPPMCEAIKCPELFAPEQGSLDCSDTRGEFNVGSTCHFSCDNGFKLEGPNNVECTTSGRWSATPPTCKGIASLPTPGVQCPALTTPGQGTMYCRHHPGTFGFNTTCYFGCNAGFTLIGDSTLSCRPSGQWTAVTPACRAVKCSELHVNKPIAMNCSNLWGNFSYGSICSFHCLEGQLLNGSAQTACQENGHWSTTVPTCQAGPLTIQEA
modifications: extracellular domain
